How the values were obtained:
Hsp90 = biological target: T1, Hsp90 (human, UniProt P07900 1-732); assay: negative-stain electron microscopy, 3D reconstruction; complexes stabilised and isolated by GraFix (10-30% glycerol gradient, 0.15% glutaraldehyde), stained with 2% uranyl acetate, JEOL JEM1010 at 80 kV; atomic structures docked into 19-26 Å volumes; conditions: both partners purified
T1 construct: Homodimer; also called hHsp90; source: E. coli, induced at 30 °C (4 h), purified (Ni-NTA, Superdex 200)

Hsp70 = biological target: T2, Hsp70 (human (by the printed Entrez Gene code), UniProt P0DMV8 1-641); assay: cryo-EM structure; ternary complexes after GraFix, vitrified; Titan Krios 300 kV (Hsp70:p53-TMGST:CHIP, 15 Å) or Talos Arctica 200 kV (Hsp90:p53-TMGST:CHIP, 13 Å); atomic structures docked; conditions: both partners purified
T2 construct: Hsp70, Entrez Gene code 3303, cloned in pQE-30; Removal of the His tag is told only for CHIP, UbcH5a, Bag1s and p53DBD, not for Hsp70; source: E. coli, expressed at 16 °C overnight, purified (Ni-NTA, Superdex 200)
T2 sequence (P0DMV8 whole entry): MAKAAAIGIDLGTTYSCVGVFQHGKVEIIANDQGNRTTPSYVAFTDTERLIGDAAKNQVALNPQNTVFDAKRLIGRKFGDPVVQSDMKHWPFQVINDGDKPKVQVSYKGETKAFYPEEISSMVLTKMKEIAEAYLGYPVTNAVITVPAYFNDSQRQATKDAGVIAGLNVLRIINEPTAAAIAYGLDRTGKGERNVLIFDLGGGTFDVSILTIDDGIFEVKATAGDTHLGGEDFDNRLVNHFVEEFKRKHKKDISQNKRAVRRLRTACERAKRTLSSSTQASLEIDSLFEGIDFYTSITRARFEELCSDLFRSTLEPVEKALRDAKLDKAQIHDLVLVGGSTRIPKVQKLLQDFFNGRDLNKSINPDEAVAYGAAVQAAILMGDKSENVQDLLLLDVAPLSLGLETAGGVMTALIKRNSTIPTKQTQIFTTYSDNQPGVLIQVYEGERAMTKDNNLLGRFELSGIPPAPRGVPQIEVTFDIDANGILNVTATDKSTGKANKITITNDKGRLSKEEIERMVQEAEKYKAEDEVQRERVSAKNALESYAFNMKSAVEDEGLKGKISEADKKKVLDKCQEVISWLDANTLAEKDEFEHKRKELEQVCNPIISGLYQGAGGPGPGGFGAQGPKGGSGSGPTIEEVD

B1: C terminus of Hsc70-interacting protein (CHIP) (enzyme, human, UniProt Q9UNE7 1-303, looked up)
chain: MKGKEEKEGGARLGAGGGSPEKSPSAQELKEQGNRLFVGRKYPEAAACYGRAITRNPLVAVYYTNRALCYLKMQQHEQALADCRRALELDGQSVKAHFFLGQCQLEMESYDEAIANLQRAYSLAKEQRLNFGDDIPSALRIAKKKRWNSIEERRIHQESELHSYLSRLIAAERERELEECQRNHEGDEDDSHVRAQQACIEAKHDKYMADMDELFSQVDEKRKKRDIPDYLCGKISFELMREPCITPSGITYDRKDIEEHLQRVGHFDPVTRSPLTQEQLIPNLAMKEVIDAFISENGWVEDY
notes: human CHIP (hCHIP), Entrez Gene code 10273, cloned in pPROEX HTa; Homodimer, seen as an asymmetric triangular dimer in all reconstructions; also called hCHIP; source: E. coli, induced at 30 °C (4 h), purified (Ni-NTA, TEV cleavage, second Ni-NTA, Superdex 200)
Q: Does B1 bind (Hsp90)?
A: Result: binds

Q: Does B1 bind (Hsp70)?
A: Result: binds

Source: PMC6433865, “The cochaperone CHIP marks Hsp70- and Hsp90-bound substrates for degradation through a very flexible mechanism” (Scientific Reports, 2019)
